The EC50 (read off the curve) is the concentration giving half of the maximal effect.

The assay addresses Recombinant His-tagged FcγRIIb (UniProt P31994). The assay is described as follows: ELISA, antibody coated at 2 uM, His-tagged FcγRIIb titrated 1:3 from 2 uM, HRP anti-His; the concentration is that of the receptor. (An ELISA detects its analyte on a solid surface through an enzyme-linked reagent.)

Recombinant His-tagged FcγRIIb, sequence (P31994 46-217 limits assumed): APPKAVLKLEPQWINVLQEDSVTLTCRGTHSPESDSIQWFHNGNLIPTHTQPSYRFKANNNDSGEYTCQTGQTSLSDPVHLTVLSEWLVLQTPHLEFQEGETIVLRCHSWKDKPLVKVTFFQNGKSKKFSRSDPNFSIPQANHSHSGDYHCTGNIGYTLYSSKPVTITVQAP

As for Avastin (antibody), the EC50 (read off the curve) amounted to 70 nM.
